Measurements taken from patent US20030224500A1, “Modified MEK1 and MEK2, crystal of a peptide: ligand: cofactor complex containing such modified MEK1 or MEK2, and methods of use thereof” (priority 2001, published 2003).

T1: glutathione-S-transferase fusion protein of kinase-inactive ERK1 (GSTERK1K71R), P27361
T1 chain: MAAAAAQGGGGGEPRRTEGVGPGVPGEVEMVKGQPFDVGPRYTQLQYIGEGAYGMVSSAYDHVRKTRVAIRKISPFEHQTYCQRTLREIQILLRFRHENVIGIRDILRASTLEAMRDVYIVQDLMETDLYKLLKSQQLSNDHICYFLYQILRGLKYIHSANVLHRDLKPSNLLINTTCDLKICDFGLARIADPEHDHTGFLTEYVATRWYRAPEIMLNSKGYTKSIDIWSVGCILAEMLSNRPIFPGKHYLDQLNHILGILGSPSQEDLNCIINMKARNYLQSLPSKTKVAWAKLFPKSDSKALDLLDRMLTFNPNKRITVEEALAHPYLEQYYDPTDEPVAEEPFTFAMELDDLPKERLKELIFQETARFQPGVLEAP


What was measured:
[1] = test system: glutathione-S-transferase fusion protein of kinase-inactive ERK1 (GSTERK1K71R); experiment: Kinase activity of the modified MEK1 peptides, GSTERK1K71R substrate, [γ-32P]ATP; type: biochemical; details: after Raf activation; 50 ng modified MEK peptide, 10 μM ATP, room temperature 20 minutes; initial experiments
Description: The modified MEK peptides (50 ng) were assayed in 20 mM HEPES (N-2-hydroxyethyl-piperazine-N′-2-ethanesulfonic acid) pH 7.5, 10 mM MgCl2, […] (ethylene glycol bis(2-aminoethyl ether)-N,N,N′N′-tetraacetic acid), 10 μM ATP, with 5 μCi [γ-^32P] ATP. Appropriate samples had 0.5 units of Raf-1 (UBI) added, and the reaction started with the addition of 1 μg GSTERK1 (K71R). The reactions were incubated at room temperature for 20 minutes, then quenched with 5 μl 6×Laemmli sample buffer. The samples were then resolved by SDS-PAGE, and the phosphoproteins visualized by autoradiography. Radiolabel incorporated into ERK was quantitated by excision of the protein band from the gel and counting in a standard scintillation counter. Initial experiments with the modified MEK1 s generated the following specific activities in units of pmol PO4 min-1 mg-1 after Raf activation: WT: 8380.6, WTsPR: 40.1, C1FL: 773.3, ClsPR: 35.9, C2FL: 537.5, C2sPR: 24.1, C3FL: 441.7 and C3sPR: 26.9.

[2] = test system: colon carcinomas of both mouse and human origin; details: cited from earlier work
[3] = test system: MAPK; details: correlated with efficacy; cited from earlier work
[4] = target: T1, glutathione-S-transferase fusion …

Row | Molecule | specific activities [1] | specific activity after Raf activation (32P incorporated into ERK) [4] | also measured
1 | C3FL: NH2-terminally truncated MEK1 having peptide of amino acid residues 42 to 393 of SEQ ID NO: 2 | 441.7 pmol PO4 min-1 mg-1 | – | –
2 | O=C(NOCC1CC1)c1ccc(F)c(F)c1Nc1ccc(I)cc1Cl [2-(2-chloro-4-iodo-phenylamino)-N-cyclopropylmethoxy-3,4-difluoro-benzamide] | – | – | tumor growth inhibited ([2]; mice with colon carcinomas of both mouse and human origin, after treatment with inhibitor): ≤ 80%; toxicity ([2]; wide range of doses, mice): no signs of toxicity; levels of MAPK in excised tumors [3]: reduction in levels of MAPK
3 | C2FL: NH2-terminally truncated MEK1 having peptide of amino acid residues 62 to 393 of SEQ ID NO: 2 | 537.5 pmol PO4 min-1 mg-1 | – | –
4 | WT: Wild-type human MEK1, full-length peptide of SEQ ID NO: 2, expressed in E. coli | 8380.6 pmol PO4 min-1 mg-1 | – | –
5 | C1FL: NH2-terminally truncated MEK1 encoding amino acids 51-393 of SEQ ID NO: 2 | 773.3 pmol PO4 min-1 mg-1 | – | –
6 | MEK1 (wt)(d280-323) (protein) MPKKKPTPIQLNPAPDGSAVNGTSSAETNLEALQKKLEELELDEQQRKRLEAFLTQKQKVGELKDDDFEKISELGAGNGGVVFKVSHKPSGLVMARKLIHLEIKPAIRNQIIRELQVLHECNSPYIVGFYGAFYSDGEISICMEHMDGGSLDQVLKKAGRIPEQILGKVSIAVIKGLTYLREKHKIMHRDVKPSNILVNSRGEIKLCDFGVSGQLIDSMANSFVGTRSYMSPERLQGTHYSVQSDIWSMGLSLVEMAVGRYPIPPPDAKELELMFGCQVKLPSGVFSLEFQDFVNKCLIKNPAERADLKQLMVHAFIKRSDAEEVDFAGWLCSTIGLNQPSTPTHAAGV | 40.1 pmol PO4 min-1 mg-1 | WTsPR: 40.1 | –
7 | MEK1-C1 (d280-323) (protein) EAFLTQKQKVGELKDDDFEKISELGAGNGGVVFKVSHKPSGLVMARKLIHLEIKPAIRNQIIRELQVLHECNSPYIVGFYGAFYSDGEISICMEHMDGGSLDQVLKKAGRIPEQILGKVSIAVIKGLTYLREKHKIMHRDVKPSNILVNSRGEIKLCDFGVSGQLIDSMANSFVGTRSYMSPERLQGTHYSVQSDIWSMGLSLVEMAVGRYPIPPPDAKELELMFGCQVKLPSGVFSLEFQDFVNKCLIKNPAERADLKQLMVHAFIKRSDAEEVDFAGWLCSTIGLNQPSTPTHAAGV | 35.9 pmol PO4 min-1 mg-1 | ClsPR: 35.9 | –
8 | MEK1-C2 (d280-323) (protein) ELKDDDFEKISELGAGNGGVVFKVSHKPSGLVMARKLIHLEIKPAIRNQIIRELQVLHECNSPYIVGFYGAFYSDGEISICMEHMDGGSLDQVLKKAGRIPEQILGKVSIAVIKGLTYLREKHKIMHRDVKPSNILVNSRGEIKLCDFGVSGQLIDSMANSFVGTRSYMSPERLQGTHYSVQSDIWSMGLSLVEMAVGRYPIPPPDAKELELMFGCQVKLPSGVFSLEFQDFVNKCLIKNPAERADLKQLMVHAFIKRSDAEEVDFAGWLCSTIGLNQPSTPTHAAGV | 24.1 pmol PO4 min-1 mg-1 | C2sPR: 24.1 | –
9 | MEK1-C3 (d280-323) (protein) LDEQQRKRLEAFLTQKQKVGELKDDDFEKISELGAGNGGVVFKVSHKPSGLVMARKLIHLEIKPAIRNQIIRELQVLHECNSPYIVGFYGAFYSDGEISICMEHMDGGSLDQVLKKAGRIPEQILGKVSIAVIKGLTYLREKHKIMHRDVKPSNILVNSRGEIKLCDFGVSGQLIDSMANSFVGTRSYMSPERLQGTHYSVQSDIWSMGLSLVEMAVGRYPIPPPDAKELELMFGCQVKLPSGVFSLEFQDFVNKCLIKNPAERADLKQLMVHAFIKRSDAEEVDFAGWLCSTIGLNQPSTPTHAAGV | 26.9 pmol PO4 min-1 mg-1 | C3sPR: 26.9 | –
